According to patent publication US9879058B2, “Use of compounds that selectively modulate astrocytic release of substances through hemichannels of connexins and pannexins, without influencing gap junctions, for the treatment of psychiatric disorders” (Universidad Andres Bello, priority 2012, dated 2018):
No end group written: not given here.

Molecular target: T1, Cx43 gap junction channels (Rattus norvegicus, UniProt P08050)
T1 construct: endogenous in cells; host or cells: primary hippocampal astrocytes of newborn (PN1) rats
T1 sequence (P08050 whole entry): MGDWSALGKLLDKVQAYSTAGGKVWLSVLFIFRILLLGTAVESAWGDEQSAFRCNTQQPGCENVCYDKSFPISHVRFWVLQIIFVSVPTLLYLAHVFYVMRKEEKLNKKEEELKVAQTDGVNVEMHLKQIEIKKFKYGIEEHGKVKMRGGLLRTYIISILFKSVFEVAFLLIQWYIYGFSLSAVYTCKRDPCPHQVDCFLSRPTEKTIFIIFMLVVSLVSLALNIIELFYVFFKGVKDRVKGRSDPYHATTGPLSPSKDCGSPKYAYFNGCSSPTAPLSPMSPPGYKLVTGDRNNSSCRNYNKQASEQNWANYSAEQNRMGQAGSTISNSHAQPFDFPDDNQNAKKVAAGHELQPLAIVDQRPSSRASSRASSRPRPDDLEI
Assay: Lucifer yellow dye coupling in astroglial cultures
Format: cell-based
Method: F. Immunohistochemistry: Brain slices previously fixed in buffered 4% paraformaldehyde and maintained in 30% sucrose were mounted in gelatin coated glass slides. After rinsing with PBS, slices were blocked and permeabilized with 1% bovine serum albumin (BSA, Sigma-Aldrich), and 3% Triton X-100 in PBS for 1 h at room temperature. After rinsing again, sections were incubated overnight at 4° C. with the primary anti-Cx43 antibody (Sigma). Afterwards, sections were rinsed with PBS and incubated for 1 h at 37° C. with Alexa Fluor® 488-conjugated secondary antibody. To identify neurons and astrocytes, sections were incubated overnight at 4° C. with either monoclonal anti-MAP2 (M 4402, Sigma-Aldrich, St-Louis, Mo.) for neurons or polyclonal anti-GFAP (Sigma-Aldrich, St-Louis, Mo.) for astrocytes. Sections were washed and incubated for 1 h at 37° C. with Alexa Fluor® 568-conjugated secondary antibodies. Finally, slides were washed and permanently mounted using ProLong® (invitrogen). Staining specificity was assayed by incubation of sections in the absence of the primary antibody. Samples were examined using laser scanning confocal microscopy on a Fluoview FV1000 (Olympus). G. Primary Cell Cultures: G.1. Astrocyte cultures: Primary astrocyte cultures were prepared from hippocampus of newborn (PN1) rats. […]
J. Dye Coupling: Astrocytes plated on glass coverslips were bathed with recording medium (HCO3-free F-12 medium buffered with 10 mM HEPES, pH 7.2) and intercellular communication mediated by gap junctions was tested by evaluating the transfer to neighboring cells of Lucifer yellow (LY) (Sigma-Aldrich, St-Louis, Mo.) microinjected into one cell. […] The coupling index was calculated as the mean number of cells to which the dye spread. K. Data Analysis: Data were expressed as Mean+SD. Statistical differences were assessed by unpaired student's t-test (Mann-Whitney) and by one-way analysis of variance (ANOVA) for multiple comparisons, followed by Dunns post hoc test, and considered significant when p<0.05. p-values in the text are written as either <0.01% or <0.05%.

In the case of “YGRKKRRQRRRDGANVDMHLKQIEIKKFKYGIEEHGK [TAT-Cx43L2, synthetic cell-permeable peptide corresponding to the Cx43L2 region (aa 119-144) of the cytoplasmic loop of Cx43]”, the “astroglial coupling (intracellular transfer of LY)” value (1 mM, 10 min incubation, hippocampal astroglial cultures) is reported as “did not affect astroglial coupling”, the astrocyte coupling incidence (n=3) is reported as “had no effect on astrocyte coupling incidence” and the astrocyte coupling index (n=3) is reported as “had no effects on astrocyte coupling index”.
